Laboratory results reported in US10801046B2, “Methods and materials for biosynthesizing multifunctional, multivariate molecules via carbon chain modification” (INVISTA NORTH AMERICA S.A.R.L., priority 2016, dated 2020).

Columns and labels:
Type in all cases: biochemical
[1] = Esterase activity assay, monomethyl heptanedioate to heptanedioic acid, LC-MS; conditions: esterase assays
Description: A nucleotide sequence encoding a C-terminal His-tag may be added to the gene from Bacillus subtilis encoding the esterase of SEQ ID NO: 50 (NCBI Reference Sequence: NP_388108.1) such that a C-terminal HIS tagged esterase is produced. The resulting modified gene is cloned into a pET28b+ expression vector under control of the T7 promoter and the expression vector is transformed into a BL21[DE3] E. coli host. The resulting recombinant E. coli strain can be cultivated at 37° C. in a 500 mL shake flask culture containing 100 mL LB media and antibiotic selection pressure, with shaking at 230 rpm. Each culture is induced overnight at 18° C. using 0.3 mM IPTG.
The pellet from each induced shake flask culture can be harvested via centrifugation. Each pellet is resuspended and lysed via sonication. The cell debris is separated from the supernatant via centrifugation. The esterase can be purified from the supernatant using Ni-affinity chromatography, buffer exchanged and concentrated into 20 mM HEPES buffer (pH=7.5) via ultrafiltration and stored at 4° C.
Enzyme activity assays converting monomethyl heptanedioate to heptanedioic acid are performed in triplicate in a buffer composed of a final concentration of 25 mM Tris-HCl buffer (pH=7.0) and 5 [mM] monomethyl heptanedioic acid. […] The formation of heptanedioic acid can be quantified via LC-MS.

[2] = Carboxylate reductase activity, heptanedioate to 7-oxoheptanoate, NADPH consumption at 340 nm; conditions: enhanced by gene product of sfp, 2 mM substrate, 20 min, against empty vector control, FIG. 43
Description: A sequence encoding a HIS-tag was added to the genes from Segniliparus rugosus and Segniliparus rotundus that encode the carboxylate reductases of SEQ ID NOs: 31 (GenBank Accession No. EFV11917.1) and 38 (GenBank Accession No. ADG98140.1), respectively, such that N-terminal HIS tagged carboxylate reductases could be produced. Each of the modified genes was cloned into a pET Duet expression vector along with a sfp gene encoding a HIS-tagged phosphopantetheine transferase from Bacillus subtilis, both under the T7 promoter. Each expression vector was transformed into a BL21[DE3] E. coli host and the resulting recombinant E. coli strains were cultivated at 37° C. in a 250 mL shake flask culture containing 50 mL LB media and antibiotic selection pressure, with shaking at 230 rpm. Each culture was induced overnight at 37° C. using an auto-induction media.
The pellet from each induced shake flask culture was harvested via centrifugation. Each pellet was resuspended and lysed via sonication, and the cell debris was separated from the supernatant via centrifugation. […]
Enzyme activity assays (i.e., from heptanedioate to 7-oxoheptanoate) were performed in triplicate in a buffer composed of a final concentration of 50 mM HEPES buffer (pH=7.5), 2 mM heptanedioate, 10 mM MgCl2, 1 mM ATP, and 1 mM NADPH. […] The consumption of NADPH was monitored by absorbance at 340 nm.

[3] = Carboxylate reductase activity, 7-hydroxyheptanoate to 7-hydroxyheptanal, NADPH consumption at 340 nm; conditions: enhanced by gene product of sfp, 20 min, against empty vector control, FIG. 44
[4] = Carboxylate reductase activity, N7-acetyl-7-aminoheptanoate to N7-acetyl-7-aminoheptanal, NADPH consumption at 340 nm; conditions: enhanced by gene product of sfp, 2 mM substrate, 20 min, against empty vector control, FIG. 45
Description: The activity of each of the N-terminal His-tagged carboxylate reductases of SEQ ID NOs: 29 (GenBank Accession No. ABK71854.1), 37 (Genbank Accession No. EIV11143.1), and 38 (GenBank Accession No. ADG98140.1) (see Examples 4) for converting N7-acetyl-7-aminoheptanoate to N7-acetyl-7-aminoheptanal was assayed in triplicate in a buffer composed of a final concentration of 50 mM HEPES buffer (pH=7.5), 2 mM N7-acetyl-7-aminoheptanoate, 10 mM MgCl2, 1 mM ATP, and 1 mM NADPH. The assays were initiated by adding purified carboxylate reductase and phosphopantetheine transferase or the empty vector control to the assay buffer containing the N7-acetyl-7-aminoheptanoate then incubated at room temperature for 20 min. The consumption of NADPH was monitored by absorbance at 340 nm.

[5] = Carboxylate reductase activity, 7-oxoheptanoate to heptanedial, NADPH consumption at 340 nm; conditions: enhanced by gene product of sfp, 2 mM substrate, 20 min, against empty vector control, FIG. 46
Description: The N-terminal His-tagged carboxylate reductase of SEQ ID NO: 38 (GenBank Accession No. ADG98140.1) (see Example 4) was assayed using 7-oxoheptanoate as substrate. The enzyme activity assay was performed in triplicate in a buffer composed of a final concentration of 50 mM HEPES buffer (pH=7.5), 2 mM 7-oxoheptanoate, 10 mM MgCl2, 1 mM ATP and 1 mM NADPH. The enzyme activity assay reaction was initiated by adding purified carboxylate reductase and phosphopantetheine transferase or the empty vector control to the assay buffer containing the 7-oxoheptanoate and then incubated at room temperature for 20 min. The consumption of NADPH was monitored by absorbance at 340 nm.

Molecule	methyl ester hydrolysis of a C7 compound [1]	acceptance of heptanedioate as substrate, forming 7-oxoheptanoate [2]	acceptance of 7-hydroxyheptanoate as substrate, forming 7-hydroxyheptanal [3]	acceptance of N7-acetyl-7-aminoheptanoate as substrate, forming N7-acetyl-7-aminoheptanal [4]	acceptance of 7-oxoheptanoate as substrate, forming heptanedial [5]
esterase from Streptomyces diastatochromogenes: estA from Streptomyces diastatochromogenes classified under EC 3.1.1.1 (protein, Streptomyces diastatochromogenes) MARFRTRLALLGSAAALAAGAVVPAQLAGAQPAAAAADLQWVALGDSYTAGVIRAAGDAIDYPRDGCERTDRSYPQVIERDLYGLFDLTNVSCGAATIENVSDTPQYPIGRHMPPFSEDPDHPFPPVPPQSEAVGPGTDVITVGVGGNTLGFADILTKCQELGGESGGEGTPCKGALGSGIKARLDKVSQGYDRMLTVLHERGPKAKILTVGYPTVIPENTADCGYGDLTKFGTITQGDLAWLRQDVLEPLNKTIEDSAATQEAADFVNLYAPSQGHSVCDADKWVEGILTVSPNQDPQLSFVHPNASGHRNAADHVEEAMLNAIS	affected the methyl ester hydrolysis of a C7 compound	–	–	–	–
SEQ ID NO: 38: Segniliparus rotundus carboxylate reductase (protein, listed as Segniliparus rotundus, Segniliparus rotundus (strain ATCC BAA-972 / CDC 1076 / CIP 108378 / DSM 44985 / JCM 13578), Segniliparus rotundus carboxylate reductase) MTQSHTQGPQASAAHSRLARRAAELLATDPQAAATLPDPEVVRQATRPGLRLAERVDAILSGYADRPALGQRSFQTVKDPITGRSSVELLPTFDTITYRELRERATAIASDLAHHPQAPAKPGDFLASIGFISVDYVAIDIAGVFAGLTAVPLQTGATLATLTAITAETAPTLFAASIEHLPTAVDAVLATPSVRRLLVFDYRAGSDEDREAVEAAKRKIADAGSSVLVDVLDEVIARGKSAPKAPLPPATDAGDDSLSLLIYTSGSTGTPKGAMYPERNVAHFWGGVWAAAFDEDAAPPVPAINITFLPLSHVASRLSLMPTLARGGLMHFVAKSDLSTLFEDLKLARPTNLFLVPRVVEMLYQHYQSELDRRGVQDGTREAEAVKDDLRTGLLGGRILTAGFGSAPLSAELAGFIESLLQIHLVDGYGSTEAGPVWRDGYLVKPPVTDYKLIDVPELGYFSTDSPHPRGELAIKTQTILPGYYKRPETTAEVFDEDGFYLTGDVVAQIGPEQFAYVDRRKNVLKLSQGEFVTLAKLEAAYSSSPLVRQLFVYGSSERSYLLAVIVPTPDALKKFGVGEAAKAALGESLQKIARDEGLQSYEVPRDFIIETDPFTVENGLLSDARKSLRPKLKEHYGERLEAMYKELADGQANELRDIRRGVQQRPTLETVRRAAAAMLGASAAEIKPDAHFTDLGGDSLSALTFSNFLHDLFEVDVPVGVIVSAANTLGSVAEHIDAQLAGGRARPTFATVHGKGSTTIKASDLTLDKFIDEQTLEAAKHLPKPADPPRTVLLTGANGWLGRFLALEWLERLAPAGGKLITIVRGKDAAQAKARLDAAYESGDPKLAGHYQDLAATTLEVLAGDFSEPRLGLDEATWNRLADEVDFISHPGALVNHVLPYNQLFGPNVAGVAEIIKLAITTRIKPVTYLSTVAVAAGVEPSALDEDGDIRTVSAERSVDEGYANGYGNSKWGGEVLLREAHDRTGLPVRVFRSDMILAHQKYTGQVNATDQFTRLVQSLLATGLAPKSFYELDAQGNRQRAHYDGIPVDFTAESITTLGGDGLEGYRSYNVFNPHRDGVGLDEFVDWLIEAGHPITRIDDYDQWLSRFETSLRGLPESKRQASVLPLLHAFARPGPAVDGSPFRNTVFRTDVQKAKIGAEHDIPHLGKALVLKYADDIKQLGLL	–	accepted heptanedioate as substrate	accepted 7-hydroxyheptanoate as substrate	accepted N7-acetyl-7-aminoheptanoate as substrate	accepted 7-oxoheptanoate as substrate
